In this assay the target is large catalase (CAT) from Aspergillus terreus MTCC 6324 (Aspergillus terreus MTCC 6324). The assay can be described thus: SEC; HiPrep Sephacryl S-300 HR column, 50 mM sodium phosphate buffer pH 7.5; native mass against gel filtration standards (29-669 kDa), compared with the subunit mass from SDS-PAGE. (SEC sorts molecules by how far they enter the pores of the column.)

In general, stoichiometry N refers to the number of molecules, sites or subunits per partner or assembly. In turn, “large catalase (CAT) from Aspergillus terreus MTCC 6324 (enzyme)” had a stoichiometry N of 4.

Source of the values: article PMC4807065.
